# Measured values as given in PMC6202311, “Substrate Recognition and Autoinhibition in the Central Ribonuclease RNase E”.
# Target: RNase E NTD D303R D346R (Escherichia coli, UniProt P21513 1-529, D303R;D346R)
# Test: crystal structure (3.0 A); Mg2+, Zn2+; BLI: 25 mM HEPES pH 7.0, 150 mM NaCl, 100 mM KCl, 10 mM CaCl2, 0.5 mM TCEP; RNA immobilised on streptavidin sensors, protein 0-500 nM; temperature not stated
# Conditions: protein: recombinant; tags: N-terminal His; chain copies: 4; hairpin, 3' single-stranded tail
binder,measurement,value
"GUUAUAUGCCUUCUUGGAGGUAUAUAACAAAGAC (structured_RNA, 5' monophosphate; 2'-O-methyl on A33 and C34 (ompD +82, +83)) [MicC-ompD fusion]",binding result,binds
